Publication PMC8774819

Biological target: BES1-MBP (Arabidopsis thaliana, UniProt Q9LN63 1-335)
Test: EMSA

BES1-MBP, sequence (Q9LN63 whole entry): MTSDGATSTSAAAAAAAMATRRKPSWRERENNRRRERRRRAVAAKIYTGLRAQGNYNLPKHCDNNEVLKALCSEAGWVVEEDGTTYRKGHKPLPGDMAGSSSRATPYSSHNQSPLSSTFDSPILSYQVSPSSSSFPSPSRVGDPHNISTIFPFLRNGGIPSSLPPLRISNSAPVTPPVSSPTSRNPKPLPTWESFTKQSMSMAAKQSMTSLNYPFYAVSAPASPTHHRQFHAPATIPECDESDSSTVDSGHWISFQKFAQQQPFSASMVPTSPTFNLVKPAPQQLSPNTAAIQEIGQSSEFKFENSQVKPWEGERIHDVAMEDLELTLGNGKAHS

Binder	binding result
WOX4 promoter probe a (dsDNA) DNA 1: CCATCTGATCACAGCTTGACACACGAATCAGGTTATCCATCGTGTGA DNA 2: TCACACGATGGATAACCTGATTCGTGTGTCAAGCTGTGATCAGATGG	binds
WOX4 promoter probe c (dsDNA) DNA 1: GTAACGAGAAAGGCATGCATAGCATTTGCTAGTTTTAACATATAGCA DNA 2: TGCTATATGTTAAAACTAGCAAATGCTATGCATGCCTTTCTCGTTAC	binds
